US20170233495

Test system: All antibodies according to the invention, which were tested (Example 4)

Chain of recombinant catalytic domain of human MMP8 (chain, as listed by the source): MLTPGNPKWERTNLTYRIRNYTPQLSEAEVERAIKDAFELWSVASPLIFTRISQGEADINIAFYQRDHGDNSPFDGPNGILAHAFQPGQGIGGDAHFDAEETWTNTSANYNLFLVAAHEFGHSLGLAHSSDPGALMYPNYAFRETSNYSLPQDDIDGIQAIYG
Chain of recombinant catalytic domain of human MMP2 (chain, as listed by the source): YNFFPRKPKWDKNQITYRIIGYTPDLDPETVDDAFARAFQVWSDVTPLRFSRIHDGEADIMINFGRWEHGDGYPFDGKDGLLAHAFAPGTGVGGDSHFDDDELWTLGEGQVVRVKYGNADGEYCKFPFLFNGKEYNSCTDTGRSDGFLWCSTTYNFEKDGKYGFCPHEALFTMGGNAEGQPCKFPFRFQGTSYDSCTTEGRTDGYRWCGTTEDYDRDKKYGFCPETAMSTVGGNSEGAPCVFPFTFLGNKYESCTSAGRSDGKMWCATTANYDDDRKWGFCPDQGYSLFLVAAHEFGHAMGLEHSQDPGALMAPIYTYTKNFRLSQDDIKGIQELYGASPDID
Chain of recombinant catalytic domain of human MMP3 (chain, as listed by the source): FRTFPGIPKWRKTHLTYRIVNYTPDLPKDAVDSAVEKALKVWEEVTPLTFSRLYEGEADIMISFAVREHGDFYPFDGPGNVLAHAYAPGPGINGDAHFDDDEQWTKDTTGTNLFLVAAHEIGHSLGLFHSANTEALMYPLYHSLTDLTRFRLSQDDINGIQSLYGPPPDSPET
Chain of recombinant catalytic domain of human MMP19 (chain, as listed by the source): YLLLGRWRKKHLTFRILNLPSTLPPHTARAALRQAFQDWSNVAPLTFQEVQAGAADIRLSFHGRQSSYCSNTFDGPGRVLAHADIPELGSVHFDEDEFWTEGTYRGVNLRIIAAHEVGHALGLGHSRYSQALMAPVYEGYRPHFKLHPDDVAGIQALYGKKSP

With “recombinant catalytic domain of human MMP2” the “cleavage of fluorogenic peptide OmniMMP RED by MMP catalytic domain, antibody at 100 nM” value (“cleavage” for short) was “had no significant effect on the catalytic activity of the eight other human MMPs tested”.

For “recombinant catalytic domain of human MMP8”, the “cleavage” value was “had no significant effect on the catalytic activity of the eight other human MMPs tested”.

“recombinant catalytic domain of human MMP19” was tested, and the “cleavage” value was “had no significant effect on the catalytic activity of the eight other human MMPs tested”.

In the case of “recombinant catalytic domain of human MMP13”, the “cleavage” value is reported as “had no significant effect on the catalytic activity of the eight other human MMPs tested”.

“recombinant catalytic domain of human MMP3” was tested, and the “cleavage” value was “had no significant effect on the catalytic activity of the eight other human MMPs tested”.
